For two molecules, Kd, koff and kon results are on record in article PMC4908374, “A humanized anti-DLL4 antibody promotes dysfunctional angiogenesis and inhibits breast tumor growth” (Scientific Reports, 2016).

Where “and” joins values, the source holds several entries; their conditions need not be identical. Equal values may be shown once.

The target in the experiment is T1, rhDLL4 (recombinant human Delta-like 4) (Homo sapiens, UniProt Q9NR61).
T1 construct: Delta-like 4 (DLL4), human, recombinant
The experiment is described as follows: SPR; Biacore X100; HCLC or H3L2 captured (up to 2,000 RU) by anti-human IgG Fc antibody immobilised on a CM5 chip; rhDLL4 up to 100 nM flowed; 25 °C, 30 μl/min; 1:1 binding model; KD from kd/ka. Conditions: both partners purified.

T1 sequence (Q9NR61 27-685, stated change not applied): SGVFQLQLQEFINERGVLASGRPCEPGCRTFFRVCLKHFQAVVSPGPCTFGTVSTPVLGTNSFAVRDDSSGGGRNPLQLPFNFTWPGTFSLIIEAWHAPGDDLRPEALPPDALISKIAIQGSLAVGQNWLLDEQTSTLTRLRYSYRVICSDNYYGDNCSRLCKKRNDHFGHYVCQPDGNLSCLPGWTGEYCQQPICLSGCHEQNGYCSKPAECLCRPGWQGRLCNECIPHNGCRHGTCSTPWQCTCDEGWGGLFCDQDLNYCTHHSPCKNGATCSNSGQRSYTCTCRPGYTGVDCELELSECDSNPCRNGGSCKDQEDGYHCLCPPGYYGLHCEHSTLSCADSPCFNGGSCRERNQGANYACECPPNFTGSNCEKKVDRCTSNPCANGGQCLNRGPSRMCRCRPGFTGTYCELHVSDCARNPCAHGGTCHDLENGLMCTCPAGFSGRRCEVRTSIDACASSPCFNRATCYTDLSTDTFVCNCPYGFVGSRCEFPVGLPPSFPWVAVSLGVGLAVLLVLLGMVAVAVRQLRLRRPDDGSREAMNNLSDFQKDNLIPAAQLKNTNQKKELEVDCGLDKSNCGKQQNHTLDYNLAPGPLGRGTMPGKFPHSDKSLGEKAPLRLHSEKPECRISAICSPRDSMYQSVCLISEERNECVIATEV

B1: HCLC, murine-human chimeric anti-DLL4 antibody (VH and VL of MMGZ01 on human constant regions) (antibody, V domains shown)
VH: EVQLEESGTELARPGASVKLSCKASGYIFSGYWMQWIKQRPGQGLEWIGAIYPGDGDTRYTQKFKGKATLTADKSSSTAYMQLSSLASEDSAVYYCAGGNFFFDYWGLGTTLAVSS
VL: DIVITQSPALMAASPGEKVTITCSVSSSISSSYLHWYQQKSGISPKPWIYGTSNLASGVPARFSGSGSGTSYSLTITSMEAEDAATYYCQQWSSSPLTFGAGTKLELK
notes: as the VH of m6; as the VL of m6; Full-length IgG1; also called chimeric antibody; source: CHO-s, transiently transfected, in supernatant
Consider B1, for which the Kd was 1.14 pM and 1.41 pM; the koff was found to be 2.42e-05 s⁻¹; the kon was 1.72e+07 M⁻¹ s⁻¹.

B2: H3L2, humanized anti-DLL4 antibody (VH3, VL2) (antibody, V domains shown)
VH: QVQLVQSGAEVKKPGSSVKVSCKASGYTFSGYWMQWIKQAPGQGLEWIGAIYPGDGDTRYTQKFKGRATLTADKSTSTAYMELSSLRSEDTAVYYCAGGNFFFDYWGQGTLVTVSS
VL: EIVITQSPDFQSVTPKEKVTITCSVSSSISSSYLHWYQQKPDQSPKPWIYGTSNLASGVPSRFSGSGSGTDYTLTINSLEAEDAATYYCQQWSSSPLTFGQGTKLEIK
notes: Full-length IgG1; also called humanized antibody; source: CHO-s, transiently transfected, in supernatant
As to B2, the Kd was 2.26 pM, the off-rate constant (koff) was 2.59e-05 s⁻¹ and the kon amounted to 1.15e+07 M⁻¹ s⁻¹.
